From patent US7067277B1, “Chimeric G proteins and uses thereof” (H. Lundbeck A/S, priority 1999, dated 2006)

How the values were obtained:
Experiment in all cases: Calcium mobilization (FLIPR, Fluo-3) in transfected COS-7 cells
Assay type in all cases: cell-based
h α1A adr = biological target: T1, h α1A adr (Homo sapiens, UniProt P35348); conditions: h α1A adr + chimera in COS-7; agonist NE, max 100 μM
T1 construct: expressed in transfected cells; host or cells: COS-7
T1 sequence (P35348 1-466): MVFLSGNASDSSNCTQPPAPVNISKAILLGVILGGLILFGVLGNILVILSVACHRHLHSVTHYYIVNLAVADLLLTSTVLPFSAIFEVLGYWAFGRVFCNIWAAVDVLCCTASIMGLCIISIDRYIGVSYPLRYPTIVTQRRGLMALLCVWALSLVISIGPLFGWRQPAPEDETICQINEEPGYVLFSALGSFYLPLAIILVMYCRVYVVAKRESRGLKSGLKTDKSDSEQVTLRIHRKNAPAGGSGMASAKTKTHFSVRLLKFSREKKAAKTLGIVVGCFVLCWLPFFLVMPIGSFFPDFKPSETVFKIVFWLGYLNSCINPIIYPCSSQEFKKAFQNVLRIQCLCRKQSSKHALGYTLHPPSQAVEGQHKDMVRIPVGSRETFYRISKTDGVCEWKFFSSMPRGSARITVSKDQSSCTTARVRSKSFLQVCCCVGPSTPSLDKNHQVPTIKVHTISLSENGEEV
Procedure, shortened: (§1)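 First, COS-7 cells receive GPCR and chimeric G protein cDNA by DEAE-dextran transfection. Agonist responses are finally recorded by FLIPR for 3 min at room temperature.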

h β2 adr = h β2 adr (Homo sapiens, UniProt P07550); conditions: h β2 adr + chimera in COS-7; agonist NE, max 100 μM
Procedure, shortened: as §1

h 5HT7 = h 5HT7 (Homo sapiens, UniProt P34969); conditions: h 5HT7 + chimera in COS-7; agonist 5HT, max 100 μM
Procedure, shortened: as §1

r GALR1 = biological target: T2, r GALR1 (Rattus norvegicus, UniProt Q62805); conditions: r GALR1 + chimera in COS-7; agonist GAL, max 10 μM
T2 sequence (Q62805 1-346): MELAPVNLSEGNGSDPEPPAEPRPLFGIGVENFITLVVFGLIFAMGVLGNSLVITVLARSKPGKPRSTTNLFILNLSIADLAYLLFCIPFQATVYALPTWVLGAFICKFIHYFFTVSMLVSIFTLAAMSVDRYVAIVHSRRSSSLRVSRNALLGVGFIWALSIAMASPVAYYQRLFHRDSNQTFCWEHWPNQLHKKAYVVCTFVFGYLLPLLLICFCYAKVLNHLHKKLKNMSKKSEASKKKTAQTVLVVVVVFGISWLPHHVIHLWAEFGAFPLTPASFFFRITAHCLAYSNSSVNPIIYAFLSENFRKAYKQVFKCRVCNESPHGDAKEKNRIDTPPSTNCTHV
Procedure, shortened: as §1

h α2B adr = biological target: T3, h α2B adr (Homo sapiens, UniProt P18089); conditions: h α2B adr + chimera in COS-7; agonist NE, max 100 μM
T3 construct: expressed in transfected cells; host or cells: COS-7
T3 sequence (P18089 1-450): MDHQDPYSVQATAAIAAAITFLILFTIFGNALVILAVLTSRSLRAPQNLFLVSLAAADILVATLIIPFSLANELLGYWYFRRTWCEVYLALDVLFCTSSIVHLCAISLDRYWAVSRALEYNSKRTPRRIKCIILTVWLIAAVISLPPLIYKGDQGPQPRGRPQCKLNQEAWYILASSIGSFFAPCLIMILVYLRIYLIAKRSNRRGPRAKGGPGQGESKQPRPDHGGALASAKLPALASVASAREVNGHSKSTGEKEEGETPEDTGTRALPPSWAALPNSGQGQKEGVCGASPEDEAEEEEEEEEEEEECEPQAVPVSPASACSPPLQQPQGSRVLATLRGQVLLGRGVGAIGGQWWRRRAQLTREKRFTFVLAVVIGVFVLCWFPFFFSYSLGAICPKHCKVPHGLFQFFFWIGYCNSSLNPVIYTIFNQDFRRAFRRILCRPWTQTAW
Procedure, shortened: as §1

h NPFF2 = biological target: T4, h NPFF2 (Homo sapiens, UniProt Q9Y5X5); conditions: h NPFF2 + chimera in COS-7; agonist NPFF, max 10 μM
T4 construct: expressed in transfected cells; host or cells: COS-7
Procedure, shortened: as §1

T4 sequence (Q9Y5X5 103-522 limits assumed): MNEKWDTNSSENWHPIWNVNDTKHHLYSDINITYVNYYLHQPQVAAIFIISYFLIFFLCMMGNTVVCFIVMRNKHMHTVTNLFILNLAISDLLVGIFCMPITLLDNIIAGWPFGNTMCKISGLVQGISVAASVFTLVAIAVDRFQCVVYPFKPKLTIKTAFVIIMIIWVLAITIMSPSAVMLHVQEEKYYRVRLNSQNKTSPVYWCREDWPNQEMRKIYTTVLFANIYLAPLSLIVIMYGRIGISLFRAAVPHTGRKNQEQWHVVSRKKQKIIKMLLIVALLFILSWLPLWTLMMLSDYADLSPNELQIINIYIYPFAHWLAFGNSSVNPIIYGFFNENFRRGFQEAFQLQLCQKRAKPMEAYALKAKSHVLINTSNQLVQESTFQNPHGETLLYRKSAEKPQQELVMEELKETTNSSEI
Sequence of h 5HT7 (P34969 whole entry): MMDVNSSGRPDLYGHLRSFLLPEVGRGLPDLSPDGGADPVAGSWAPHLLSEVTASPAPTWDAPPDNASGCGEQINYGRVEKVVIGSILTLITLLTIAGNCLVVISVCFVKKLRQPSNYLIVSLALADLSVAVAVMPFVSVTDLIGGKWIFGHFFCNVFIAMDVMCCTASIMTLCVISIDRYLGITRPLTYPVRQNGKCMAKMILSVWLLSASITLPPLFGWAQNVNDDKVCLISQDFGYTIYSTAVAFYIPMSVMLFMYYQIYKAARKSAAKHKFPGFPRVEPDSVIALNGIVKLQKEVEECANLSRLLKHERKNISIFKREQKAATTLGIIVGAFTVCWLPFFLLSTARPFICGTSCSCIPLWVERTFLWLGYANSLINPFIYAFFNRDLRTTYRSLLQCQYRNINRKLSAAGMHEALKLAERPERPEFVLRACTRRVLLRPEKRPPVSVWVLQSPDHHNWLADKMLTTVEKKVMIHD

Molecule	MAXIMAL SIGNAL (FLUORESCENCE UNITS) (h α1A adr)	MAXIMAL SIGNAL (FLUORESCENCE UNITS) (h β2 adr)	MAXIMAL SIGNAL (FLUORESCENCE UNITS) (h 5HT7)	MAXIMAL SIGNAL (FLUORESCENCE UNITS) (r GALR1)	MAXIMAL SIGNAL (FLUORESCENCE UNITS) (h α2B adr)	MAXIMAL SIGNAL (FLUORESCENCE UNITS) (h NPFF2)
cGαq/z5: chimeric Gα subunit: C-terminal final 5 amino acids of C. elegans Gαq replaced with those of hGαz (SEQ ID NO: 1) (protein, C. elegans) MACCLSEEAREQKRINQEIEKQLQRDKRNARRELKLLLLGTGESGKSTFIKQMRIIHGQGYSEEDKRAHIRLVYQNVFMAIQSMIRAMDTLDIKFGNESEELQEKAAVVREVDFESVTSFEEPYVSYIKELWEDSGIQECYDRRREYQLTDSAKYYLSDLRRLAVPDYLPTEQDILRVRVPTTGIIEYPFDLEQIIFRMVDVGGQRSERRKWIHCFENVTSIMFLVALSEYDQVLVECDNENRMEESKALFRTIITYPWFTNSSVILFLNKKDLLEEKILYSHLADYFPEYDGPPRDPIAAREFILKMFVDLNPDADKIIYSHFTCATDTENIRFVFAAVKDTILQHNLKYIGLC	9816 fluorescence units	1842 fluorescence units	166 fluorescence units	3086 fluorescence units	4983 fluorescence units	7566 fluorescence units
cGαq/z9: C. elegans Gαq with Gαz portion of the C-terminal tail extended to 9 amino acids (SEQ ID NO: 2) (protein, C. elegans) MACCLSEEAREQKRINQEIEKQLQRDKRNARRELKLLLLGTGESGKSTFIKQMRIIHGQGYSEEDKRAHIRLVYQNVFMAIQSMIRAMDTLDIKFGNESEELQEKAAVVREVDFESVTSFEEPYVSYIKELWEDSGIQECYDRRREYQLTDSAKYYLSDLRRLAVPDYLPTEQDILRVRVPTTGIIEYPFDLEQIIFRMVDVGGQRSERRKWIHCFENVTSIMFLVALSEYDQVLVECDNENRMEESKALFRTIITYPWFTNSSVILFLNKKDLLEEKILYSHLADYFPEYDGPPRDPIAAREFILKMFVDLNPDADKIIYSHFTCATDTENIRFVFAAVKDTILQNNLKYIGLC	6597 fluorescence units	1697 fluorescence units	129 fluorescence units	5947 fluorescence units	5138 fluorescence units	4578 fluorescence units
